The text below walks through data of PMC11237551, “MRS2 missense variation at Asp216 abrogates inhibitory Mg^2+ binding, potentiating cell migration and apoptosis resistance” (Protein Science : A Publication of the Protein Society, 2024).

As usually defined, the Kd is a measure of binding affinity in units of concentration. A word on the stoichiometry N: it is a count of units in the complex or per binding partner.

Data set [1] concerns the molecule itself. As to the kind of experiment: AUC; sedimentation equilibrium, 0.313 mg/mL protein, no Mg2+, 20°C, 20 mM Tris, 150 mM NaCl, 1 mM DTT, pH 8.0; global fit of 8000, 12,000, 16,000 and 20,000 rpm; dimer to monomers.
Data set [2] deals with the molecule itself. Kind of data set: AUC; sedimentation equilibrium, 1.25 mg/mL protein, with 5 mM MgCl2, 20°C, 20 mM Tris, 150 mM NaCl, 1 mM DTT, pH 8.0; global fit of 8000, 12,000, 16,000 and 20,000 rpm; dimer to monomers.
Data set [3] deals with the molecule itself. Kind of data set: AUC; sedimentation equilibrium, 0.625 mg/mL protein, with 5 mM MgCl2, 20°C, 20 mM Tris, 150 mM NaCl, 1 mM DTT, pH 8.0; global fit of 8000, 12,000, 16,000 and 20,000 rpm; dimer to monomers.
Data set [4] concerns the molecule itself. As to the kind of experiment: SEC-MALS; Superdex 200 Increase 10/300 GL, 100 uL injected at 2.5 mg/mL, 20 mM Tris pH 8, 150 mM NaCl, 1 mM DTT, ~10°C, buffer nominally free of Mg2+. (In general: SEC sorts molecules by how far they enter the pores of the column.)
Data set [5] concerns the molecule itself. As to the kind of experiment: AUC; sedimentation equilibrium, 0.625 mg/mL protein, no Mg2+, 20°C, 20 mM Tris, 150 mM NaCl, 1 mM DTT, pH 8.0; global fit of 8000, 12,000, 16,000 and 20,000 rpm; dimer to monomers.
Data set [6] deals with the molecule itself. As to the kind of experiment: AUC; sedimentation equilibrium, 0.313 mg/mL protein, with 5 mM MgCl2, 20°C, 20 mM Tris, 150 mM NaCl, 1 mM DTT, pH 8.0; global fit of 8000, 12,000, 16,000 and 20,000 rpm; dimer to monomers.
Data set [7] deals with the molecule itself. Kind of data set: AUC; sedimentation equilibrium, 1.25 mg/mL protein, no Mg2+, 20°C, 20 mM Tris, 150 mM NaCl, 1 mM DTT, pH 8.0; global fit of 8000, 12,000, 16,000 and 20,000 rpm; dimer to monomers.

B1: human MRS2 amino terminal domain, residues 58-333 (MRS2_(58‐333)), wild type (domain or fragment, UniProt Q9HD23-1 58-333, looked up)
chain: DRLRVAGEVHRFRTSDVSQATLASVAPVFTVTKFDKQGNVTSFERKKTELYQELGLQARDLRFQHVMSITVRNNRIIMRMEYLKAVITPECLLILDYRNLNLEQWLFRELPSQLSGEGQLVTYPLPFEFRAIEALLQYWINTLQGKLSILQPLILETLDALVDPKHSSVDRSKLHILLQNGKSLSELETDIKIFKESILEILDEEELLEELCVSKWSDPQVFEKSSAGIDHAEEMELLLENYYRLADDLSNAARELRVLIDDSQSIIFINLDSHRN
notes: Mitochondrial RNA splicing protein 2 (MRS2), human, amino terminal (matrix) domain, residues 58-333 of NCBI NP_065713.1 (pre-protein numbering); theoretical monomer 32.5 kDa including cloning artifacts; Surmise: E. coli, His tag removed by protease; also called MRS2‐NTD; WT; source: recombinantly expressed and purified, as described previously (Uthayabalan et al., 2023)
With B1, the dissociation constant (Kd) is 17.4 µM in data set [1]; 55.4 µM in data set [2]; 146 µM in data set [3]; 24.3 µM in data set [5]; 1760 µM in data set [6]; 16.4 µM in data set [7]. Also, the “stoichiometry N” value stood at 1.7 in data set [1]; 1.5 in data set [2]; 1.1 in data set [3]; 2 in data set [4]; 1.6 in data set [5]; 1 in data set [6]. Moreover, the “stoichiometry N” value in data set [7] was found to be 1.7.

B2: human MRS2 amino terminal domain, residues 58-333, E261Q mutant (MRS2_(58‐333)‐E261Q) (domain or fragment, UniProt Q9HD23-1 58-333, looked up)
chain: DRLRVAGEVHRFRTSDVSQATLASVAPVFTVTKFDKQGNVTSFERKKTELYQELGLQARDLRFQHVMSITVRNNRIIMRMEYLKAVITPECLLILDYRNLNLEQWLFRELPSQLSGEGQLVTYPLPFEFRAIEALLQYWINTLQGKLSILQPLILETLDALVDPKHSSVDRSKLHILLQNGKSLSELETDIKIFKESILEILDQEELLEELCVSKWSDPQVFEKSSAGIDHAEEMELLLENYYRLADDLSNAARELRVLIDDSQSIIFINLDSHRN
notes: construct details in Uthayabalan et al., 2023; also called MRS2‐NTD‐E261Q; source: recombinantly expressed and purified as described for MRS2_(58‐333) (Uthayabalan et al., 2023)
With B2, the “stoichiometry N” value in data set [4] worked out at 2.

B3: human MRS2 amino terminal domain, residues 58-333, D216Q mutant (MRS2_(58‐333)‐D216Q) (domain or fragment, UniProt Q9HD23-1 58-333, looked up)
chain: DRLRVAGEVHRFRTSDVSQATLASVAPVFTVTKFDKQGNVTSFERKKTELYQELGLQARDLRFQHVMSITVRNNRIIMRMEYLKAVITPECLLILDYRNLNLEQWLFRELPSQLSGEGQLVTYPLPFEFRAIEALLQYWINTLQGKLSILQPLILETLQALVDPKHSSVDRSKLHILLQNGKSLSELETDIKIFKESILEILDEEELLEELCVSKWSDPQVFEKSSAGIDHAEEMELLLENYYRLADDLSNAARELRVLIDDSQSIIFINLDSHRN
notes: theoretical monomer 32,517 Da; construct details in Uthayabalan et al., 2023; also called MRS2‐NTD‐D216Q; source: recombinantly expressed and purified as described for MRS2_(58‐333) (Uthayabalan et al., 2023)
As for B3, the Kd was found to be 33.6 µM in data set [2], 22.2 µM in data set [3] and 11.2 µM in data set [6]. Moreover, the results for the “stoichiometry N” value in data set [2], in data set [3] and in data set [6] were 1.6, 1.8 and 2, respectively.
